This note sets out measurements from publication PMC11231238, “SPRING licenses S1P-mediated cleavage of SREBP2 by displacing an inhibitory pro-domain” (Nature Communications, 2024).

This assay has as its target T1, FLAG-S1P_(ecto)-His10, matured C-form (human, UniProt Q14703 187-998).
T1 construct: human S1P (MBTPS1); expressed as IgK leader-FLAG-residues 23-998-His10; after autoproteolysis the His10-bearing C-form; The N-terminal FLAG tag leaves with the A-domain; also called WT S1P_(ecto); C-form of S1P_(ecto); source: HEK 293S GnTI- (BacMam baculovirus), secreted, purified (NiNTA, gel filtration); HEK 293T, transfected, secreted, in supernatant; not shown: His10, C-terminal, kept
T1 sequence (looked up): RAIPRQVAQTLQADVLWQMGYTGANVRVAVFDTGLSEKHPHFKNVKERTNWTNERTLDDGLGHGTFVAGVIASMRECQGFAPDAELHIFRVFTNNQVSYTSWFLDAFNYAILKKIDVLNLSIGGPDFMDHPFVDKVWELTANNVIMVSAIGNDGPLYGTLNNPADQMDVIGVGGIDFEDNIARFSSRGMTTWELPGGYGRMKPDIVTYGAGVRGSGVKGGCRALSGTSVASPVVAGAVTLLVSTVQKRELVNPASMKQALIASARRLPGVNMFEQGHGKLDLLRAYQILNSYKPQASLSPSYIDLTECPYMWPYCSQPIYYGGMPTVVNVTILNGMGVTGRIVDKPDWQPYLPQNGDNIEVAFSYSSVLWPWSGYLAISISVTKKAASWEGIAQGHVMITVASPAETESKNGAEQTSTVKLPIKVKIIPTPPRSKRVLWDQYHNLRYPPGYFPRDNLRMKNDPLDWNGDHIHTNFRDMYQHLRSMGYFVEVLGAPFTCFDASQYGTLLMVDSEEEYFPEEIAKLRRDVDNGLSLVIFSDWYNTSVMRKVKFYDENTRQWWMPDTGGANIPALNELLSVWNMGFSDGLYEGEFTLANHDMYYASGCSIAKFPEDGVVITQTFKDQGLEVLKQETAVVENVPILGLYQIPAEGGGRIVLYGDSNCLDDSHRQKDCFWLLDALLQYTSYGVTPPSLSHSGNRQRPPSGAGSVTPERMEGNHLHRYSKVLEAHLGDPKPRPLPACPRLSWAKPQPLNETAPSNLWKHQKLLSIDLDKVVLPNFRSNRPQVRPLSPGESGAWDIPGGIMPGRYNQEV
Put plainly: pull-down; HEK 293T supernatants of co-transfected cells with 50 mM imidazole; NiNTA resin holds the His10 tag of S1P_(ecto), 1-2 h at 4 °C; washes in 150 mM NaCl, 50 mM HEPES-NaOH pH 7.5, 50 mM imidazole; elution with 300 mM imidazole; immunoblot anti-HA, anti-His, anti-FLAG. As to conditions: partners not purified. Background: Immunoblotting shows a protein as a band on a membrane.

B1: cleaved A-domain of FLAG-S1P_(ecto)-His10 (domain or fragment, human, UniProt Q14703 23-137, looked up)
chain: DRLEKKSFEKAPCPGCSHLTLKVEFSSTVVEYEYIVAFNGYFTAKARNSFISSALKSSEVDNWRIIPRNNPSSDYPSDFEVIQIKEKQKAGLLTLEDHPNIKRVTPQRKVFRSLK
notes: human S1P (MBTPS1) A pro-domain, released by autoproteolysis from the construct FLAG-residues 23-998-His10; the construct begins at residue 23; in the cryo-EM map the density ends after K137 (cleavage at the B site); cleavage at the alternative B' site is possible too; also called A pro-domain; S1P A-domain; source: HEK 293S GnTI- (BacMam baculovirus), secreted, co-purified with S1P_(ecto) …
As to B1, the binding result is on record as “binds”.
